Source: patent US5783681, “Androgen regulation with DNA sequences of rat probasin gene” (University of Manitoba)

Legend:
[1] = biological target: T1, androgen receptor (hAR) wild type (Homo sapiens) (UniProt P10275); experiment: cell_activity; conditions: 10 nM DHT; background 4.2
T1 sequence: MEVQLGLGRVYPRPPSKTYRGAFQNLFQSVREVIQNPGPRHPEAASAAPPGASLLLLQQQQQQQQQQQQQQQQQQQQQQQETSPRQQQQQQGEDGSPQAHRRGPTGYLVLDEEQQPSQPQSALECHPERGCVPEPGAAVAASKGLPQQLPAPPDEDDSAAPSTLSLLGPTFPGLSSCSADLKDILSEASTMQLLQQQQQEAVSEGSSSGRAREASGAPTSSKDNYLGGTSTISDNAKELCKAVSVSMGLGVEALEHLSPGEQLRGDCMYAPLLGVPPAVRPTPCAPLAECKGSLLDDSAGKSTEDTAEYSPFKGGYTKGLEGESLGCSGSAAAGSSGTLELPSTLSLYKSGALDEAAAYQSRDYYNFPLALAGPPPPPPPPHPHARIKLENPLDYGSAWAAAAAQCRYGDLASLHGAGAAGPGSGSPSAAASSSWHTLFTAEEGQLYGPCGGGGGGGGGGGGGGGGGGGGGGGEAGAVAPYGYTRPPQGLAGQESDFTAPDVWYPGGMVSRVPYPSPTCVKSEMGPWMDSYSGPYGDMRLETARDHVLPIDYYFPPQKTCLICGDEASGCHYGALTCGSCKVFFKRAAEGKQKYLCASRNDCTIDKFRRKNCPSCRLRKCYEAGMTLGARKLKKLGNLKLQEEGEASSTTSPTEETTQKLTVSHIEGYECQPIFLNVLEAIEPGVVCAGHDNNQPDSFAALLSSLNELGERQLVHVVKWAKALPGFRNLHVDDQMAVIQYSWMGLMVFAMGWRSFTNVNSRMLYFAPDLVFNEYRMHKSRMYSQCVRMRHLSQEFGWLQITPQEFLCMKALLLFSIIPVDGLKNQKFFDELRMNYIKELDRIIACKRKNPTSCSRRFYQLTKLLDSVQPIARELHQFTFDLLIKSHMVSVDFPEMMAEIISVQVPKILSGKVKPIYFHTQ

[2] = biological target: androgen receptor V865M V865M (Homo sapiens) (UniProt P10275); experiment: cell_activity; conditions: 10 nM DHT; background 4.2
[3] = biological target: T2, androgen receptor V865L V865L (Homo sapiens) (UniProt P10275); experiment: cell_activity; conditions: 10 nM DHT; background 4.2
T2 sequence: T1 sequence

[4] = biological target: T3, glucocorticoid receptor (GR) (Rattus norvegicus) (UniProt P06536); experiment: cell_activity; conditions: DEX, CAT reporter
T3 sequence: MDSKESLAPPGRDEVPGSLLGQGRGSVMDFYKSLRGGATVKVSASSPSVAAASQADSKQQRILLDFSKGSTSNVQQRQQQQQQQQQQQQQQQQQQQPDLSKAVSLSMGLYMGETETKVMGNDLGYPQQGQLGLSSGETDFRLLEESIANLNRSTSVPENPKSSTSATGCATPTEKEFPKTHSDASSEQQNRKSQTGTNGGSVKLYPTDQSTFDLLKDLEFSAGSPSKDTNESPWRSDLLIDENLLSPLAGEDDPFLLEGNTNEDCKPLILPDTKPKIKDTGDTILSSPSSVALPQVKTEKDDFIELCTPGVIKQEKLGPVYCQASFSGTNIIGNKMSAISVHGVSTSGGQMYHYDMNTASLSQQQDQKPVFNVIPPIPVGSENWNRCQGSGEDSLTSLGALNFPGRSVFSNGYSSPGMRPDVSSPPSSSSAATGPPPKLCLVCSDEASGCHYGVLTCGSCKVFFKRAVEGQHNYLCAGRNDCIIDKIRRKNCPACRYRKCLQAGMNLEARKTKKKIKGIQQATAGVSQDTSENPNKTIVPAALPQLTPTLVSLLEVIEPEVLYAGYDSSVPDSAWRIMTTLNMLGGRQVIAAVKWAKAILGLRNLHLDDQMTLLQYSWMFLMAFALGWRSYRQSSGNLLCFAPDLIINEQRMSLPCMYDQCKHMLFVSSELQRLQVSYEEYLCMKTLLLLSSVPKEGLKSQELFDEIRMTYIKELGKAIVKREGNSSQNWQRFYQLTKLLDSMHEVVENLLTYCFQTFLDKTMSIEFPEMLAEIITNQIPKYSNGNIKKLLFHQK

[5] = biological target: T4, androgen receptor (AR) (Rattus norvegicus) (UniProt P15207); experiment: cell_activity; conditions: DHT, CAT reporter
T4 sequence: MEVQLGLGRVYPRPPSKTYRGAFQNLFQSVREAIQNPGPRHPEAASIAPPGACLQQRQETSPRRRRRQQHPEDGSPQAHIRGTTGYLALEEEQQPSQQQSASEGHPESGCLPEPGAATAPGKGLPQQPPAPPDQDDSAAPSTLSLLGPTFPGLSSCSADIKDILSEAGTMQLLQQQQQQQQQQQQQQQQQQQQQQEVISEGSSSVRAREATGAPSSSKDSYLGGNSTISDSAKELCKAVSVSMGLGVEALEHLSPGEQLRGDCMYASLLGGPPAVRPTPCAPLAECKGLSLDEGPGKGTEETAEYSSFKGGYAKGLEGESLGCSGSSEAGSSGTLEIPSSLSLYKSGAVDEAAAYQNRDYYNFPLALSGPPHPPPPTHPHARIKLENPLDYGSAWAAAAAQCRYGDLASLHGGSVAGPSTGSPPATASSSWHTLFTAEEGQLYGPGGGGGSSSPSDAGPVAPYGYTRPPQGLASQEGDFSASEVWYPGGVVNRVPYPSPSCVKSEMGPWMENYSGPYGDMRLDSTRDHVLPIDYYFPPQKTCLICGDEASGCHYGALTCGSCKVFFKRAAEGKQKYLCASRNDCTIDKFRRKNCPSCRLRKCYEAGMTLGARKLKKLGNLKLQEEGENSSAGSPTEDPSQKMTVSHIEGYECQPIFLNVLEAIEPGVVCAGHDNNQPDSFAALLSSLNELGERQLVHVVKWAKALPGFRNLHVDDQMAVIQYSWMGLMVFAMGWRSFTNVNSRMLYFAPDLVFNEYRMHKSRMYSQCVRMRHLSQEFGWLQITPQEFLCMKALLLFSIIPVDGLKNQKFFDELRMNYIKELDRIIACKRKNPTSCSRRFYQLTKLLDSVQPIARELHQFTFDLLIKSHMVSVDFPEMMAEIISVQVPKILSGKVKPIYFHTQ

[6] = biological target: T5, glucocorticoid receptor (GR) (Rattus norvegicus, UniProt P06536 P06536:1-795); experiment: cell_activity; DEX, TK promoter CAT reporter; conditions: chain copies: 2
Method: (§1) Cells which had undergone transient transfection were harvested in phosphate buffered saline containing 1 mM EDTA. After centrifugation at 2000×g for 4 min at room temperature, cells were lysed in 0.1M Tris-HCl/0.1% Triton X-100, pH 7.8 for 15 min on ice. Insoluble material was removed by centrifugation at 14,500×g, 15 minutes, at 4° C. The CAT activity in the cell extract was determined by a two-phase fluor diffusion assay (Nachtigal et al., 1989). Also, the DNA was isolated from the insoluble material and 2 µg samples were placed in duplicate on nitrocellulose membrane via slot-blot apparatus and probed with ^32P-labelled CAT insert DNA. Autoradiograms were analyzed by densitometry and all CAT activity data was normalized for transfection efficiency. For transgenic mice, a total cellular extract of each tissue was assayed for CAT activity.
(§2) Due to the lack of appropriate cell lines containing either androgen receptors and/or prostatic in origin, a range of cell lines was tested. The human prostatic cells LNCaP would express and androgen regulate PB-CAT-while HeLa, prostatic DU-145 and PC-3 cells required co-transfection of an androgen receptor expression vector for androgen regulation. […]

androgen receptor (AR) [7] = biological target: T6, androgen receptor (AR) (Rattus norvegicus, UniProt P15207 P15207:1-902); experiment: cell_activity; DHT, TK promoter CAT reporter; conditions: chain copies: 2
Method: as §1, §2

[8] = biological target: T5, glucocorticoid receptor (GR); experiment: cell_activity; DEX, CAT reporter; conditions: chain copies: 2
Method: as §1, §2

androgen receptor (AR) [9] = biological target: T6, androgen receptor (AR); experiment: cell_activity; DHT, CAT reporter; conditions: chain copies: 2
Method: as §1, §2

Molecule: TAGTCATCATGTTTAAACATCTACCATTCCAGTTAAGAAAATATGATAGCATCTTGTTCTTAGTCTTTTTCTTAATAGGGACATAAAGCCCACAAATAAAAATATGCCTGAAGAATGGGACAGGCATTGGGCATTGTCCATGCCTAGTAAAGTACTCCAAGAACCTATTTGTATACTAGATGACACAATGTCAATGTCTGTGTACAACTGCCAACTGGGATGCAAGACACTGCCCATGCCAATCATCCTGAAAAGCAGCTATAAAAAGCAGGAAGCTACTCTGCACCTTGTCAGTGAGGTCCAGATACCTACAG (double strand) [probasin -286 to +28 ARE2*]
- activity (dpm/min/mg protein) [1]: 177
- activity (dpm/min/mg protein) [2]: 49
- activity (dpm/min/mg protein) [3]: 122

Molecule: ATAGCATCTTGTTCTTAGTGGGCATTGTCCATGCCTAGTAAAGTACTCCAAGAACCTATTTGTATACTAGATGACACAATGTCAATGTCTGTGTACAACTGCCAACTGGGATGCAAGACACTGCCCATGCCAATCATCCTGAAAAGCAGCTATAAAAAGCAGGAAGCTACTCTGCACCTTGTCAGTGAGGTCCAGATACCTACAG (double strand) [ARE-1 adjacent to probasin -158 to +28]
- activity (fold induction) [4]: 21

Molecule: ATGATAGCATCTTGTTCTTAGTCTTTTTCTTAATAGGGACATAAAGCCCACAAATAAAAATATGCCTGAAGAATGGGACAGGCATTGGGCATTGTCCATGCCTAGTAAAGTACTCCAAGAACCTATTTGTATACTAGATGACACAATGTCAATGTCTGTGTACAACTGCCAACTGGGATGCAAGACACTGCCCATGCCAATCATCCTGAAAAGCAGCTATAAAAAGCAGGAAGCTACTCTGCACCTTGTCAGTGAGGTCCAGATACCTACAG (double strand) [probasin -244 to +28]
- activity (fold induction) [5]: 49
- activity (fold induction) [4]: 9

Molecule: TAGTCATCATGTTTAAACATCTACCATTCCAGTTAAGAAAATATGATAGCATCTTGTTCTTAGTCTTTTTCTTAATAGGGACATAAAGCCCACAAATAAAAATATGCCTGAAGAATGGGACAGGCATTGGGCATTGTCCATGCCTAGTAAAGTACTCCAAGAACCTATTTGTATACTAGATGACACAATGTCAATGTCTGTGTACAACTGCCAACTGGGATGCAAGACACTGCCCATGCCAATCATCCTGAAAAGCAGCTATAAAAAGCAGGAAGCTACTCTGCACCTTGTCAGTGAGGTCCAGATACCTACAG (double strand) [probasin -286 to +28]
- activity (dpm/min/mg protein) [2]: 42

B1: probasin -244 to -96 (dsDNA)
DNA 1: ATGATAGCATCTTGTTCTTAGTCTTTTTCTTAATAGGGACATAAAGCCCACAAATAAAAATATGCCTGAAGAATGGGACAGGCATTGGGCATTGTCCATGCCTAGTAAAGTACTCCAAGAACCTATTTGTATACTAGATGACACAATGT
DNA 2: ACATTGTGTCATCTAGTATACAAATAGGTTCTTGGAGTACTTTACTAGGCATGGACAATGCCCAATGCCTGTCCCATTCTTCAGGCATATTTTTATTTGTGGGCTTTATGTCCCTATTAAGAAAAAGACTAAGAACAAGATGCTATCAT
- activity [6]: 96 fold induction
- activity (androgen receptor (AR) [7]): 61 fold induction

B2: probasin -158 to +28 (dsDNA)
DNA 1: GGGCATTGTCCATGCCTAGTAAAGTACTCCAAGAACCTATTTGTATACTAGATGACACAATGTCAATGTCTGTGTACAACTGCCAACTGGGATGCAAGACACTGCCCATGCCAATCATCCTGAAAAGCAGCTATAAAAAGCAGGAAGCTACTCTGCACCTTGTCAGTGAGGTCCAGATACCTACAG
DNA 2: CTGTAGGTATCTGGACCTCACTGACAAGGTGCAGAGTAGCTTCCTGCTTTTTATAGCTGCTTTTCAGGATGATTGGCATGGGCAGTGTCTTGCATCCCAGTTGGCAGTTGTACACAGACATTGACATTGTGTCATCTAGTATACAAATAGGTTCTTGGAGTACTTTACTAGGCATGGACAATGCCC
- activity [8]: 1.2 fold induction
- activity (androgen receptor (AR) [9]): 1.4 fold induction
